Here are results for two substances from publication PMC6981184.

One assay has as its target soluble CD4 (sCD4) (UniProt P01730). Nature of the assay: SPR.
The target of assay [1] is BG505 N332 SOSIP gp140 envelope trimer (unmutated BG505 SOSIP) (HIV-1 (clade A, BG505)). The experiment in a line: negative-stain electron microscopy.
A further assay concerns the target soluble CD4 (UniProt P01730). The experiment in a line: SPR. On the technique in general: Surface plasmon resonance follows binding to a sensor surface in real time, without labels.

Usually koff stands for a measure of how fast the partners let go of each other. The low end stands for a long-lived complex, the high end for a short-lived complex. As a reminder, the kon is the second-order rate constant of association. In general, stoichiometry N refers to the number of molecules, sites or subunits per partner or assembly. What is called pKd is the negative decadic logarithm of the Kd, by convention in mol/L. A higher pKd goes with a small Kd.

pKd: −log10 of the molar value.

In the assay with soluble CD4 (sCD4), “BG505 SOSIP.664 (unmutated BG505 N332 SOSIP gp140 trimer) (complex)” had a koff of 0.00061 s⁻¹ and a kon of 11200 M⁻¹ s⁻¹.

With “BG505 N332 SOSIP gp140 envelope trimer (unmutated BG505 SOSIP) (complex)”, the stoichiometry N in assay [1] was 3. Besides, in the assay with soluble CD4, the pKd was 7.17.
